Target: T1, 新型冠状病毒野生型Spike RBD蛋白 (新型冠状病毒野生型 (SARS-CoV-2 wild type), UniProt P0DTC2 319-537)
T1 construct: domain: Spike RBD
Assay: ELISA binding experiment (Fig. 3)

B1: 克隆号为3A7C12的抗体 (antibody, V domains shown)
VH: EVQLVESGGGLVKPGGSLRLSCAASGFTFSSYSMNWVRQAPGKGLEWVSSISSGSSYIYFADSVKGRFTISRDNAKNSLFLQMNSLRAEDTATYYCARAPLGYDSSGYFTMYYFDYWGQGTLVTVSS
VL: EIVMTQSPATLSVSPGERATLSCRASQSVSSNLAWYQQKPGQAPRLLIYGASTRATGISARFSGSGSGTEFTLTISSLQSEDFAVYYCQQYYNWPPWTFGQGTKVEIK
notes: also called 3A7C12克隆号抗体
**Q.** Does B1 bind?
**A.** no binding
